Data taken from article PMC5405935, “Role of Kif15 and its novel mitotic partner KBP in K-fiber dynamics and chromosome alignment” (PLoS ONE, 2017).

B1: Kif15-M-His (amino acids 1-714, motor domain and part of the stalk) (domain or fragment, human, UniProt Q9NS87 1-714, looked up)
chain: MAPGCKTELRSVTNGQSNQPSNEGDAIKVFVRIRPPAERSGSADGEQNLCLSVLSSTSLRLHSNPEPKTFTFDHVADVDTTQESVFATVAKSIVESCMSGYNGTIFAYGQTGSGKTFTMMGPSESDNFSHNLRGVIPRSFEYLFSLIDREKEKAGAGKSFLCKCSFIEIYNEQIYDLLDSASAGLYLREHIKKGVFVVGAVEQVVTSAAEAYQVLSGGWRNRRVASTSMNRESSRSHAVFTITIESMEKSNEIVNIRTSLLNLVDLAGSERQKDTHAEGMRLKEAGNINRSLSCLGQVITALVDVGNGKQRHVCYRDSKLTFLLRDSLGGNAKTAIIANVHPGSRCFGETLSTLNFAQRAKLIKNKAVVNEDTQGNVSQLQAEVKRLKEQLAELASGQTPPESFLTRDKKKTNYMEYFQEAMLFFKKSEQEKKSLIEKVTQLEDLTLKKEKFIQSNKMIVKFREDQIIRLEKLHKESRGGFLPEEQDRLLSELRNEIQTLREQIEHHPRVAKYAMENHSLREENRRLRLLEPVKRAQEMDAQTIAKLEKAFSEISGMEKSDKNQQGFSPKAQKEPCLFANTEKLKAQLLQIQTELNNSKQEYEEFKELTRKRQLELESELQSLQKANLNLENLLEATKACKRQEVSQLNKIHAETLKIITTPTKAYQLHSRPVPKLSPEMGSFGSLYTQNSSILDNDILNEPVPPEMNEQAFEA
notes: Kif15, human, first 714 amino acids (motor domain and part of the stalk sufficient for dimerization), cloned into pET-21b; also called recombinant Kif15 motor domain; source: E. coli BL21 (DE3), purified (Ni-NTA)

How the values were obtained:
[1] = biological target: B1; assay: SEC + other: sucrose gradient centrifugation; 80 μg of each protein alone or both in motor buffer (100mM PIPES, 2mM MgAc2, 1mM EGTA, 1mM DTT), pre-incubated 30 min on ice; Superose 6 column; 6-28% sucrose gradients, 16 h at 4°C; with or without ATP; native molecular weights calculated from Stokes radius and sedimentation coefficient; conditions: both partners purified
[2] = biological target: the molecule itself; assay: as above

Row | stoichiometry N [1] | Binder | stoichiometry N [2]
1 | 2 KBP per Kif15-M dimer | KBP-His (full-length His-tagged KBP) (natural protein, human, UniProt Q96EK5 1-621, looked up, also called recombinant His-tagged KBP; source: E. coli BL21 (DE3), purified (Ni-NTA)) MANVPWAEVCEKFQAALALSRVELHKNPEKEPYKSKYSARALLEEVKALLGPAPEDEDERPEAEDGPGAGDHALGLPAEVVEPEGPVAQRAVRLAVIEFHLGVNHIDTEELSAGEEHLVKCLRLLRRYRLSHDCISLCIQAQNNLGILWSEREEIETAQAYLESSEALYNQYMKEVGSPPLDPTERFLPEEEKLTEQERSKRFEKVYTHNLYYLAQVYQHLEMFEKAAHYCHSTLKRQLEHNAYHPIEWAINAATLSQFYINKLCFMEARHCLSAANVIFGQTGKISATEDTPEAEGEVPELYHQRKGEIARCWIKYCLTLMQNAQLSMQDNIGELDLDKQSELRALRKKELDEEESIRKKAVQFGTGELCDAISAVEEKVSYLRPLDFEEARELFLLGQHYVFEAKEFFQIDGYVTDHIEVVQDHSALFKVLAFFETDMERRCKMHKRRIAMLEPLTVDLNPQYYLLVNRQIQFEIAHAYYDMMDLKVAIADRLRDPDSHIVKKINNLNKSALKYYQLFLDSLRDPNKVFPEHIGEDVLRPAMLAKFRVARLYGKIITADPKKELENLATSLEHYKFIVDYCEKHPEAAQEIEVELELSKEMVSLLPTKMERFRTKMALT | 
2 |  | B1 | 2
